# Like-named read-outs stand apart in the source and are kept apart here. Positions of bridges follow the written chain, without caps; N, C: chain ends. No end group written: not given here.
# B1: SEQ. ID. NO. 9 (Ac-D-Phe^6 analog of Ac-hMCH(6-16)-NH2) (peptide)
# peptide: XCMLGRVYRPC
# HELM: PEPTIDE1{[ac].[dF].C.M.L.G.R.V.Y.R.P.C.[am]}$PEPTIDE1,PEPTIDE1,3:R3-12:R3$$$V2.0
# SMILES: CSCC[C@@H]1NC(=O)[C@@H](NC(=O)[C@@H](Cc2ccccc2)NC(C)=O)CSSC[C@@H](C(N)=O)NC(=O)[C@@H]2CCCN2C(=O)[C@H](CCCNC(=N)N)NC(=O)[C@H](Cc2ccc(O)cc2)NC(=O)[C@H](C(C)C)NC(=O)[C@H](CCCNC(=N)N)NC(=O)CNC(=O)[C@H](CC(C)C)NC1=O
# B2: SEQ. ID. NO. 13 (Ac-D-Lys^6 analog of Ac-hMCH(6-16)-NH2) (peptide)
# peptide: XCMLGRVYRPC
# HELM: PEPTIDE1{[ac].[dK].C.M.L.G.R.V.Y.R.P.C.[am]}$PEPTIDE1,PEPTIDE1,3:R3-12:R3$$$V2.0
# SMILES: CSCC[C@@H]1NC(=O)[C@@H](NC(=O)[C@@H](CCCCN)NC(C)=O)CSSC[C@@H](C(N)=O)NC(=O)[C@@H]2CCCN2C(=O)[C@H](CCCNC(=N)N)NC(=O)[C@H](Cc2ccc(O)cc2)NC(=O)[C@H](C(C)C)NC(=O)[C@H](CCCNC(=N)N)NC(=O)CNC(=O)[C@H](CC(C)C)NC1=O
# B3: SEQ. ID. NO. 14 (Ac-D-Cit^6 analog of Ac-hMCH(6-16)-NH2) (peptide)
# peptide: XCMLGRVYRPC
# modifications: N-terminal acetyl; D-Cit (D-citrulline) at position 6; C-terminal amide; disulfide cycle
# B4: SEQ. ID. NO. 31 (D-Arg^6, Nle^8, Asn^10 analog of Ac-hMCH(6-16)-NH2) (peptide)
# peptide: XCXLNRVYRPC
# HELM: PEPTIDE1{[ac].[dR].C.[Nle].L.N.R.V.Y.R.P.C.[am]}$PEPTIDE1,PEPTIDE1,3:R3-12:R3$$$V2.0
# SMILES: CCCC[C@@H]1NC(=O)[C@@H](NC(=O)[C@@H](CCCNC(=N)N)NC(C)=O)CSSC[C@@H](C(N)=O)NC(=O)[C@@H]2CCCN2C(=O)[C@H](CCCNC(=N)N)NC(=O)[C@H](Cc2ccc(O)cc2)NC(=O)[C@H](C(C)C)NC(=O)[C@H](CCCNC(=N)N)NC(=O)[C@H](CC(N)=O)NC(=O)[C@H](CC(C)C)NC1=O
# B5: SEQ. ID. NO. 29 (D-Arg^6, Asn^10 analog of Ac-hMCH(6-16)-NH2) (peptide)
# peptide: XCMLNRVYRPC
# HELM: PEPTIDE1{[ac].[dR].C.M.L.N.R.V.Y.R.P.C.[am]}$PEPTIDE1,PEPTIDE1,3:R3-12:R3$$$V2.0
# SMILES: CSCC[C@@H]1NC(=O)[C@@H](NC(=O)[C@@H](CCCNC(=N)N)NC(C)=O)CSSC[C@@H](C(N)=O)NC(=O)[C@@H]2CCCN2C(=O)[C@H](CCCNC(=N)N)NC(=O)[C@H](Cc2ccc(O)cc2)NC(=O)[C@H](C(C)C)NC(=O)[C@H](CCCNC(=N)N)NC(=O)[C@H](CC(N)=O)NC(=O)[C@H](CC(C)C)NC1=O
# B6: SEQ. ID. NO. 33 (D-Arg^6, Asn^10, Ala^14 analog of Ac-hMCH(6-16)-NH2) (peptide)
# peptide: XCMLNRVYAPC
# HELM: PEPTIDE1{[ac].[dR].C.M.L.N.R.V.Y.A.P.C.[am]}$PEPTIDE1,PEPTIDE1,3:R3-12:R3$$$V2.0
# SMILES: CSCC[C@@H]1NC(=O)[C@@H](NC(=O)[C@@H](CCCNC(=N)N)NC(C)=O)CSSC[C@@H](C(N)=O)NC(=O)[C@@H]2CCCN2C(=O)[C@H](C)NC(=O)[C@H](Cc2ccc(O)cc2)NC(=O)[C@H](C(C)C)NC(=O)[C@H](CCCNC(=N)N)NC(=O)[C@H](CC(N)=O)NC(=O)[C@H](CC(C)C)NC1=O
# B7: SEQ. ID. NO. 30 (D-Arg^6, Gln^10 analog of Ac-hMCH(6-16)-NH2) (peptide)
# peptide: XCMLQRVYRPC
# HELM: PEPTIDE1{[ac].[dR].C.M.L.Q.R.V.Y.R.P.C.[am]}$PEPTIDE1,PEPTIDE1,3:R3-12:R3$$$V2.0
# SMILES: CSCC[C@@H]1NC(=O)[C@@H](NC(=O)[C@@H](CCCNC(=N)N)NC(C)=O)CSSC[C@@H](C(N)=O)NC(=O)[C@@H]2CCCN2C(=O)[C@H](CCCNC(=N)N)NC(=O)[C@H](Cc2ccc(O)cc2)NC(=O)[C@H](C(C)C)NC(=O)[C@H](CCCNC(=N)N)NC(=O)[C@H](CCC(N)=O)NC(=O)[C@H](CC(C)C)NC1=O
# B8: human MCH (peptide)
# chain: DFDMLRCMLGRVYRPCWQV
# modifications: disulfide 7-16 (inferred)
# Experiments:
# human MCH-1R [1] = target: T1, human MCH-1R (human, UniProt Q99705 1-353); test: cell-based or functional assay
# human MCH-2R [2] = target: T2, human MCH-2R (human, UniProt Q969V1 1-340); test: cell-based or functional assay
# human MCH-2R [3] = target: T2, human MCH-2R; test: SPA, displacement of [125I]-[Phe13,Tyr19]-hMCH, MCH-2R membranes
# Protocol: (§1) After equilibrating at room temperature for 3 hours, the plates were read in a TopCount (Packard, Meriden, Conn.). IC₅₀ calculations were performed using Prism 3.0 (GraphPad. Software, San Diego, Calif.). The IC₅₀ values were measured in three different experiments.
# human MCH-1R [4] = target: T1, human MCH-1R; test: SPA, displacement of [125I]-[Phe13,Tyr19]-hMCH, CHO/MCH-1R membranes
# Protocol: as §1
# human MCH-1R [5] = target: T1, human MCH-1R; test: ratio of the two SPA IC50s
# Protocol: as §1
# human MCH-1R [6] = target: T1, human MCH-1R; test: SPA, displacement of [125I]-[Phe13,Tyr19]-hMCH, CHO/MCH-1R membranes; remark: listed apart in the source
# Protocol: as §1
# human MCH-1R [7] = target: T1, human MCH-1R; test: cell-based or functional assay; remark: listed apart in the source
# human MCH-2R [8] = target: T2, human MCH-2R; test: cell-based or functional assay; remark: listed apart in the source
# human MCH-2R [9] = target: T2, human MCH-2R; test: SPA, displacement of [125I]-[Phe13,Tyr19]-hMCH, MCH-2R membranes; remark: listed apart in the source
# Protocol: as §1
# human MCH-1R [10] = target: T1, human MCH-1R; test: cell-based or functional assay; remark: listed apart in the source
# human MCH-1R [11] = target: T1, human MCH-1R; test: cell-based or functional assay; remark: listed apart in the source
# human MCH-2R [12] = target: T2, human MCH-2R; test: cell-based or functional assay; remark: listed apart in the source
# human MCH-2R [13] = target: T2, human MCH-2R; test: SPA, displacement of [125I]-[Phe13,Tyr19]-hMCH, MCH-2R membranes; remark: listed apart in the source
# Protocol: as §1
# T1 sequence (Q99705 whole entry): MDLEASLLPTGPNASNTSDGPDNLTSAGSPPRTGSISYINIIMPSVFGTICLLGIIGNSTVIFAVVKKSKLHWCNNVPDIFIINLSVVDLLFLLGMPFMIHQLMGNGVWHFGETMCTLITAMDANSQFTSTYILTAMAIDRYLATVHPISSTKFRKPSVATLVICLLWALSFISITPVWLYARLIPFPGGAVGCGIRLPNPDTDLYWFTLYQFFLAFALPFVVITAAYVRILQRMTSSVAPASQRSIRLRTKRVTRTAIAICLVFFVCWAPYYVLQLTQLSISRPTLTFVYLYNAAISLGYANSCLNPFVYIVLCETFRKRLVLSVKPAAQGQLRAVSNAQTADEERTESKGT
# T2 sequence (Q969V1 whole entry): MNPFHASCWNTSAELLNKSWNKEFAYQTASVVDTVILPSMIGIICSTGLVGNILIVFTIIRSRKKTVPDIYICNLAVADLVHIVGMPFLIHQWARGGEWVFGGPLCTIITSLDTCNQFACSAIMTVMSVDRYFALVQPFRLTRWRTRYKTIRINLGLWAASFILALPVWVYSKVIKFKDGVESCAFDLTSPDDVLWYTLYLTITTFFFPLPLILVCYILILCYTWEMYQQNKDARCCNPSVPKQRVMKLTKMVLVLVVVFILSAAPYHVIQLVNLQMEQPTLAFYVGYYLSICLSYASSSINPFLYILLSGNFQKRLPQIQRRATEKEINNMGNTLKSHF
Binder,"Activation %, aequorin bioluminescence (human MCH-1R [1]) [%]","EC50, aequorin bioluminescence (human MCH-1R [1]) [nM]","EC50, aequorin bioluminescence (human MCH-2R [2]) [nM]",IC50 (human MCH-2R [3]) [nM],IC50 (human MCH-1R [4]) [nM],"Activation %, aequorin bioluminescence (human MCH-2R [2]) [%]",Selectivity 2/1 (MCH-2R/MCH-1R IC50 ratio) (human MCH-1R [5]) [ratio],IC50 (human MCH-1R [6]) [nM],"Activation %, aequorin bioluminescence (human MCH-1R [7]) [%]","EC50, aequorin bioluminescence (human MCH-1R [7]) [nM]","Activation %, aequorin bioluminescence (human MCH-2R [8]) [%]","EC50, aequorin bioluminescence (human MCH-2R [8]) [nM]",IC50 (human MCH-2R [9]) [nM],also measured
B1,117,66,510,1250,0.9,–,–,–,–,–,–,–,–,–
B2,130,94,2100,1030,0.3,55,–,–,–,–,–,–,–,–
B3,91,920,310,134,3,68,–,–,–,–,–,–,–,–
B4,–,–,–,–,–,–,5700,0.28,130,240,23,5500,1600,Selectivity 2/1 (MCH-2R/MCH-1R EC50 activity ratio) (human MCH-1R [7]): 23 ratio
B5,–,–,–,–,–,–,6600,0.5,120,55,20,8400,3300,fold more selective as agonist for hMCH-1R than hMCH-2R (human MCH-1R [10]): ~150 fold; Selectivity 2/1 (MCH-2R/MCH-1R EC50 activity ratio) (human MCH-1R [7]): 150 ratio
B6,–,–,–,–,–,–,–,3.2,109,260,17,> 10000,–,fold more selective with respect to hMCH-2R (human MCH-1R [10]): ~50 fold; fold weaker agonist than the parent compound (human MCH-1R [10]): 5 fold
B7,–,–,–,–,–,–,230,6.1,74,2300,11,> 10000,1400,fold more selective as agonist for hMCH-1R than hMCH-2R (human MCH-1R [10]): ~150 fold
B8,100,–,30.7,0.5,–,100,–,–,100,–,100,30.7,0.5,"Activation %, aequorin bioluminescence (human MCH-1R [11]): 100%; Activation %, aequorin bioluminescence (human MCH-2R [12]): 100%; EC50, aequorin bioluminescence (human MCH-2R [12]): 30.7 nM; IC50 (human MCH-2R [13]): 0.5 nM"

# — patent US20050020492A1 (MERCK, published 2005)
